assay: yeast display, Sf9 membrane polyspecificity reagent, FACS + sequencing; frameworks hold sequencing errors
How it was run: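 In a synthetic yeast display library (Saccharomyces cerevisiae BJ5465), nanobody expression was induced with galactose for 36–48 hours. FACS gates were set low and high (top ~1%) using anti-HA fluorescence for expression and streptavidin fluorescence for binding of the Sf9 membrane reagent. Each polyreactivity label is drawn from the gate of origin.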

| Sequence | polyreactivity (PSR sort gate) |
| --- | --- |
| QVQLVESGGGLVQAGGSLRLRCAASGSTFGPYVMGWYRQAPGKVRELVAVISGGSTDYADSVKGRFTISRDNAKNNVYLQINSLKPEDTAVYYCNAEYYFYLSPTVYLYDYWGQGTQVTVSS | high polyreactivity |
| QVQLVESGGGLVQAGGSLRLRCAASGSTFSRYAMGWYRQAAGKERELVAAISWSGGSTYYADSVKGRFTISRDNAKNTVYLQMNSLKPEYTAVYYCAAYTYSFRANHDFWGQGTQVTVSS | high polyreactivity |
| QVQLVESGGGLVQAGGSLRLRCAASGSTFWSYAMGWYRQAPGKERELVATITRAGTTNYADSVKGPFTISRDNAKNTVYLQMNSLKPEDTAVYYCAKRKFRWPYQGSYSYIPFGYWGQGTQVTVSS | high polyreactivity |
| QVQLVESGGGLVQAGGSLRLRCAASGSTFYWNAMGWYRQAPGKERELVATITYSGGSTYYADSVKGRFTISRDNAKNTVYLQMNSLKPEDTAVYYCATGGLTWHYTYRGYYWGQGTQVTVSS | low polyreactivity |
| QVQLVESGGGLVQAGGSLRLRCAASGTTTSNNSMGWYRQAPGKERELVADMSTNGDSTSYADSVKGRYTISRDNAKNTVYLQMNSLKPVDTAVYYCAASTYVTYWEYDYWGQGTQVTVSS | low polyreactivity |
| QVQLVESGGGLVQAGGSLRLRCAASGWYRQAAGKERELVAAITYSGGSTYYADSVKGRFTISRDNAKKTVYLQMNSLKPEDTAVYYCAAQPRVDYEFPYRYGYWGLGTQVTVSS | low polyreactivity |
| QVQLVESGGGLVQAGGSLRLRCAPSGFIFNTMGWYRQAPGKERDLVATISWSDGSTYYADSVKGRFTISRDNAKNTVYLHMNSLKTEDTADYYCAATTDALVGRPRYDYWGQGTQVTVSS | low polyreactivity |
| QVQLVESGGGLVQAGGSLRLRGAASGSIFKGNAMGWYRQAPGKERELVAAITRSVARTYYADSVKVRFTISRDNAKNTVYLQMNSLKPEDTAVYDCAADWYQWGGRYYAPRYYYWGQGTQVTVSS | high polyreactivity |
| QVQLVESGGGLVQAGGSLRLRSAASGSIYNQNAMGWYRQAHGNRELVAAITNGVSTDYADSVKGRFTISRDNAKNTVYLKLNSLKPEDTAVYYCNAGNYQYPSFEYDYWGLGTQVTVSS | low polyreactivity |
| QVQLVESGGGLVQAGGSLRLRWAASGFIFGYYPMGWYRPAPGKERELVAAINSSGGSTYYADSVKGRFTISRDNAKNTVYLQMNSLKPADTAVYYCAARAYQRGIYWGQGTQVTLSS | high polyreactivity |
| QVQLVESGGGLVQAGGSLRLSCAAAGFTFYIYAMGWYRKAPGKERELVAAITTTTGSTYYADSVKGRFTISRDNAKNTVYLQMNSLKPEDTAVYYCAAEGHYYYFGYYYWGQGTQVTVSS | low polyreactivity |
| QVQLVESGGGLVQAGGSLRLSCAAAGSIFSGYAMGWSRQAPGKERELVAAISGSGGSTFYADSVKGRFTISRDNAKKTVYLQMNSLKPEDTAVYYCAARRIAPYARYDYWGQGTQVTVSS | low polyreactivity |
| QVQLVESGGGLVQAGGSLRLSCAAAGSTFHANAMGWYRPAPGKERELVAAISRSGGSTNYADSVKGRFTISRDIAKNTVYLQMNSLKPEDTAVYYCAVDYRYYQVYYWGQGTQVTVSS | high polyreactivity |
| QVQLVESGGGLVQAGGSLRLSCAACGRISTAYAMGGYRQAPGTERELVAAISSGTSTTYADSVKGRFTISRDNAKNTVYLQMNSLKPEDTAVYYCAAPGRYGEYDYWGQGTQVTVSS | low polyreactivity |
| QVQLVESGGGLVQAGGSLRLSCAACGRTFRFYAMGWYRKAPGKERELVAAISKSGGSTYYADSVKGRFTISRDNEKNTVYLQMNSLKPEDTAVYYCAAQTYLYDYKYWGQGTQVTVSS | high polyreactivity |
| QVQLVESGGGLVQAGGSLRLSCAACGSIFEAYAMGWYRKAPGKERELVAVINYSGGSTYYADSVKGRFTISRDNAKNTVYLQMNSLKPEDTAVYYCAADTVRPWYAYKAHDYWGLGTQVTVSS | low polyreactivity |

| Sequence | polyreactivity (PSR sort gate) |
| --- | --- |
| QVQLVESGGGLVQAGGSLRLSCAACGSIFPAYAMGWYRQAPGKERELVASITGSGGSTYYADSVKGRFTISRDNAKNTVYLQMNSLKPEDTAVYYCNARYYVYSATVDRYYHFYYWGQGTQVTVSS | high polyreactivity |
| QVQLVESGGGLVQAGGSLRLSCAACGSIFPGYAMGWYREAPGKERELVAAITWNGGRTYSADSVKGRFTISRDNAKNTVYLQMNSLKPEDTAVYYCAVAGYAGLSVKYGYWGQGTQVTVSS | high polyreactivity |
| QVQLVESGGGLVQAGGSLRLSCAACGSIFPRNAMGWYIQAPGKDRALVASLNSGGSTNYADSVKGRFTISRDNAKYTVYLHMNSLKPEDSAGYYCAAVRPWWRNKPQWPRYDYWGQGTQVTVSS | low polyreactivity |
| QVQLVESGGGLVQAGGSLRLSCAACGSLFGYNAMGWYRQAPGKERELVAAISYSGGSTYYADSVKGRFTISRDNAKNTDFLQMNSLKPEETAVYYCNAYRRYKDEDYWGQGTQVTVSS | high polyreactivity |
| QVQLVESGGGLVQAGGSLRLSCAACGSTFIPNGMGLYRQAPGKERELVAAITQDGGSTYYADSVKGRFTISRDNAKNTVYLQMNSLKPEDTAVYYCAASAGPYYEYGYWGQGTQVTVSS | low polyreactivity |
| QVQLVESGGGLVQAGGSLRLSCAACGSTFWYYAMGWYRQAPGKEREFVAAISKSGDSTNYADSVKGRFTISRDNAKNTVYLQMNSLKPEDTAVYYCAATRSSGRFRYYYWGQGTQVTVSS | high polyreactivity |
| QVQLVESGGGLVQAGGSLRLSCAAMGWYRQAPGKERELVATITWSGGSTYYADSVKGRFTISRDNAKNTVYLQMNSLKPEDTAVYYCNARATLLSPANTIRGYDYWGQGTQVTVSS | low polyreactivity |
| QVQLVESGGGLVQAGGSLRLSCAAMGWYRQAPGKERELVATLTWSGGSTYYADSVKGRFTISRDNAKNPVYLQMNRLKPEDTAVYYCNARATLLSPANTIRGYDYWGQGTQVTVSS | low polyreactivity |
| QVQLVESGGGLVQAGGSLRLSCAASAFIFRYYAIGGYRQAPGNERELVAAIARSGGSTYYADSVKGRFTISRDNAKNTVYLQMNSLKPEVTAVYYCNRGDVIGRQYDSAYGYWGQGTQVTVSS | high polyreactivity |
| QVQLVESGGGLVQAGGSLRLSCAASAFIYSFNAMGWYSQAPGKERELVAAISRSGGSTRYADSVKGRFTISRDTAKNTVYLQMNSLKPEYTAVYYCATDASPVRKRYDYWGQGTQVTVSS | high polyreactivity |
| QVQLVESGGGLVQAGGSLRLSCAASAFIYSSYAMGWYRQAPGKEMELVAAISYSGGSTYYADSVKGRFTISRDTAKNTVYLQMNRLKPEDTAVYYCAAELQIKIGFYTGEYEYYYWGQGTQVTVSS | high polyreactivity |
| QVQLVESGGGLVQAGGSLRLSCAASAFTFDPYARGWYRHAPGKERELDAANSWSGGSTYYADSVKGRFTISRDHAKNSVYLQMNSLKPEDTAVYYCAAEWYNSAYYEYDYWGQGTQVTVSS | high polyreactivity |
| QVQLVESGGGLVQAGGSLRLSCAASAFTFPGNAMGWYRHATGKERQLVAAISGTGGSTYYADSVKGRFTISRDNAKNTVYLQMNSLKPEDTAVYYCAARLGGRRRFGYWGQGTQVTVSS | high polyreactivity |
| QVQLVESGGGLVQAGGSLRLSCAASAIIFYTYAMGWYRQAPGKERELVAAISSGGRTTYADSVKGRFTISRDNAKTTVYFQMNSLKPEDTAVYYCAARLFRSRHAASPFIRSIYGYWGQGTQVTVSS | high polyreactivity |
| QVQLVESGGGLVQAGGSLRLSCAASARIFSPYAMGWYRQAPGKERELVAAITSASSTYYADSVKGRFTISRDNAKNTLYLQMNSLKPEDTAVYYCAASYWRYGSAFDYWGQGTQVTVSS | high polyreactivity |
| QVQLVESGGGLVQAGGSLRLSCAASASIFADNTMGWYRQAPGKERELVAAITSSGRTYYADSVKGRFTISLDNAKNTVYLQLNSLKPEDTAVYYCAAVIYFHDYSPYYYWGQGTQVTVSS | high polyreactivity |
